The values that follow come from US12703930B2, “Systems and methods for identification of MHC-I peptide epitopes” (THE REGENTS OF THE UNIVERSITY OF CALIFORNIA, priority 2020, dated 2026).

“Also recorded” adds a separate entry of the source.

One assay deals with T1, TAPBPR/HLA-A02 complexes (Homo sapiens, UniProt P04439).
T1 construct: Plasmid DNA encoding the luminal domain of class I MHC (MHC-I) heavy chains H2-D^d, HLA-A*02:01; made in house
The assay can be described thus: native gel electrophoresis: release of HLA-A02 from tetramerized TAPBPR/HLA-A02 complexes by peptide. The assay is classed as binding. The conditions noted are these: biotinylated TAPBPR/HLA-A02 tetramerized with Streptavidin-PE; TAX 25, 125 or 2500 pmol; P18-I10 2500 pmol; 12% acrylamide gel.

A further assay has as its target goldilocks/HLA-A*02:01 (Homo sapiens, UniProt P04439). As to the kind of experiment: native gel electrophoresis assay of TAPBPR-mediated peptide exchange on p*MHC-I. The conditions noted are these: overnight incubation, excess peptide of interest, TAPBPR:MHC molar ratio 1:1 down to 1:1000.
Assay [1] concerns murine cells expressing the B4.3.2 TCR, DMF5 human T cells expressing the MART-1 TCR, NY-ESO-1 human T cells expressing the NY-ESO-1 TCR. As to the kind of experiment: flow cytometry staining of TCR-expressing cells with pMHC-I tetramers. The conditions noted are these: TAPBPR at up to 1:100 molar ratio with MHC-I. The assay is classed as cell-based. The procedure: Flow cytometry was performed using commercially available tetramers prepared by currently available methods (“conventional”), as well as by the disclosed methods involving TAPBPR peptide exchange using a stoichiometric amount of TAPBPR (“exchanged stoichiometric”), a catalytic amount of TAPBPR (1:100 TAPBPR: MHC-I) (“exchanged catalytic”) or a mismatched peptide. […]. Tetramers prepared by the disclosed methods performed similarly to tetramers commercially produced using conventional methods.
FIG. 7C illustrates a titration of P18410/H-2D^d binding to B.4.2.3 cells (top), HLA-A*2:01/MART-1 binding to DMF5 cells (middle) and HLA-A*2:01/NY-ESO-1 peptide binding to NY-ESO-1 cells (bottom). The binding compares commercially available pMHC-I tetramers prepared using conventional methods (refolded) with pMHC-I tetramers prepared using the disclosed methods. […]. Data shown is representative of triplicate assays and error-bars are standard deviation from the mean.
Tetramer formation The procedure for production of peptide loaded tetramers using TAPBPR mediated exchange is described in See, e.g., Overall et al., “High Throughput pMHC-I Tetramer Library Production Using Chaperone Mediated Peptide Exchange,” bioRxiv, doi:10.1101/653477 (2019), which is hereby incorporated by reference in its entirety herein. […]
On the technique in general: In flow cytometry, cells or beads pass a laser one at a time.

Excerpt for TAPBPR/HLA-A02 complexes: The peptide receptive MHC-I complexes were isolated by gel filtration and tetramerized with Streptavidin-PE.

For the substance RGPGRAFVTI [P18-I10], the “release of HLA-A02 proteins from the TAPBPR/HLA-A02 complexes (native gel)” value with TAPBPR/HLA-A02 complexes was “showed no HLA-A02 proteins”. Regarding “TAPBPR: molecular chaperone; recombinant luminal domain expressed in Drosophila S2 cells”, the “peptide exchange on goldilocks/HLA-A*02:01 (formation of pMHC species)” value with goldilocks/HLA-A*02:01 is “complete peptide exchange; also recorded: catalyzes efficient peptide exchange when present at up to 1:1000 molar ratio with MHC-I”. The “peptide exchange catalysed by TAPBPR (FIGS. 7A-7C)” value in assay [1] is on record as “catalyzes efficient peptide exchange when present at up to 1:100 molar ratio with MHC-I”.
